The source of these data is publication PMC9064986 (2022).

Sequences and labels used below:
T1: BMPRII ECD G89A (human, UniProt Q13873-1 27-150, G89A)
T1 sequence: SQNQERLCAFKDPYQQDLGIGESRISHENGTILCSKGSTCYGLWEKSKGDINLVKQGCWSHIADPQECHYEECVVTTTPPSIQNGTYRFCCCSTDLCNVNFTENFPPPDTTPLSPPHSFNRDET

T2: BMPRII ECD G89E (human, UniProt Q13873-1 27-150, G89E)
T2 sequence: T1 sequence with A63E

T3: BMPRII ECD S107P (human, UniProt Q13873-1 27-150, S107P)
T3 sequence: T1 sequence with A63G, S81P

T4: BMPRII ECD Q92H (human, UniProt Q13873-1 27-150, Q92H)
T4 sequence: T1 sequence with A63G, Q66H

T5: BMPRII ECD G89W (human, UniProt Q13873-1 27-150, G89W)
T5 sequence: T1 sequence with A63W

T6: BMPRII ECD N126S (human, UniProt Q13873-1 27-150, N126S)
T6 sequence: T1 sequence with A63G, N100S

T7: BMPRII ECD E98K (human, UniProt Q13873-1 27-150, E98K)
T7 sequence: T1 sequence with A63G, E72K

B1: BMPRII extracellular domain (ECD), wild type (domain or fragment)
chain: T1 sequence with A63G
B2: BMPRII-Fc (R&D Systems) (Fc fusion)
chain: T1 sequence with A63G
B3: Recombinant human BMP10 growth factor (GF)-domain (R&D Systems) (ligand)
chain: NAKGNYCKRTPLYIDFKEIGWDSWIIAPPGYEAYECRGVCNYPLAEHLTPTKHAIIQALVHLKNSQKASKACCVPTKLEPISILYLDKGVVTYKFKYEGMAVSECGCR

Changes are numbered by the printed parent chain.

In assay [1] the target is B3. Nature of the assay: SPR. (SPR reads the build-up and loss of mass on a sensor chip optically.)
Assay [2] addresses B3. Briefly: SPR.
Assay [3] deals with B3. Nature of the assay: SPR; BMP10 immobilised.
Assay [4] concerns the target B3. Briefly: SPR; BMP10 immobilised.
In assay [5] the target is B2. Briefly: SPR; BMPRII-Fc immobilised.
Assay [6] deals with B2. Nature of the assay: SPR; BMPRII-Fc immobilised.
For assay [7], the target named is T1, BMPRII ECD G89A. Briefly: SPR.
In assay [8] the target is T2, BMPRII ECD G89E. Briefly: SPR.
The target of assay [9] is T3, BMPRII ECD S107P. Nature of the assay: SPR.
The target of assay [10] is T4, BMPRII ECD Q92H. Nature of the assay: SPR.
The target of assay [11] is T5, BMPRII ECD G89W. Briefly: SPR.
In assay [12] the target is T6, BMPRII ECD N126S. Nature of the assay: SPR.
The target in assay [13] is T7, BMPRII ECD E98K. Nature of the assay: SPR.
Assay [14] addresses B2. Nature of the assay: SPR; BMP10 pre-complexed with ALK1 ECD.
Assay [15] addresses B2. Nature of the assay: SPR; BMP10 pre-complexed with ALK1 ECD.
In assay [16] the target is T1, BMPRII ECD G89A. Briefly: SPR. The source holds these as a separate data set.
For assay [17], the target named is T2, BMPRII ECD G89E. Briefly: SPR. The source holds these as a separate data set.
Assay [18] concerns the target T3, BMPRII ECD S107P. Briefly: SPR. This is another data set of the same source.
Assay [19] deals with T4, BMPRII ECD Q92H. Nature of the assay: SPR. This is another data set of the same source.
Assay [20] has as its target T5, BMPRII ECD G89W. Nature of the assay: SPR. The source holds these as a separate data set.
For assay [21], the target named is T6, BMPRII ECD N126S. Nature of the assay: SPR. This is another data set of the same source.
For assay [22], the target named is T7, BMPRII ECD E98K. Briefly: SPR. The source holds these as a separate data set.
In another assay the target is BMPRII ECD ΔF1 (human, UniProt Q13873-1 27-150). Nature of the assay: SPR.
For another assay, the target named is BMPRII ECD ΔF3 (human, UniProt Q13873-1 27-150). Nature of the assay: SPR.

The term Kd denotes the constant that tells how readily two partners part at equilibrium. One may read the koff as the first-order rate constant of dissociation.

For the molecule B1, the equilibrium dissociation constant (Kd) in assay [1] was 1.19 µM. The koff in assay [2] came to 0.161 s⁻¹.
As for B2, the Kd in assay [3] came to 0.00447 µM. The koff in assay [4] was 0.000857 s⁻¹.
In the case of B3, the koff in the assay with BMPRII-Fc (R&D Systems) [5] amounted to 0.000838 s⁻¹; with BMPRII-Fc (R&D Systems) [15], 0.00138 s⁻¹; in the assay with BMPRII ECD G89A [16], 0.331 s⁻¹; in the assay with BMPRII ECD G89E [17] it was 0.609 s⁻¹; with BMPRII ECD S107P [18], 0.0423 s⁻¹; with BMPRII ECD Q92H [19] it was 0.147 s⁻¹. Further, the koff in the assay with BMPRII ECD G89W [20] was found to be 0.433 s⁻¹; with BMPRII ECD N126S [21] it was 0.14 s⁻¹; in the assay with BMPRII ECD E98K [22], 0.158 s⁻¹; with BMPRII ECD ΔF1, 0.309 s⁻¹; with BMPRII ECD ΔF3, 0.49 s⁻¹. For the same molecule, the dissociation constant Kd was 0.000338 µM in the assay with BMPRII-Fc (R&D Systems) [6]; 3.19 µM in the assay with BMPRII ECD G89A [7]; 153 µM with BMPRII ECD G89E [8]; 0.328 µM with BMPRII ECD S107P [9]; 1.22 µM with BMPRII ECD Q92H [10]; 237 µM with BMPRII ECD G89W [11]. Moreover, the equilibrium dissociation constant (Kd) amounted to 1.32 µM with BMPRII ECD N126S [12]; 1.07 µM in the assay with BMPRII ECD E98K [13]; 0.0016 µM in the assay with BMPRII-Fc (R&D Systems) [14]; 6.63 µM with BMPRII ECD ΔF1; 4.17 µM with BMPRII ECD ΔF3.
